Measurements: patent US20230331827A1, “POTASSIUM CHANNEL INHIBITORS” (priority 2017, published 2023)

B1: KB_A10 (scFv on phage) (scFv, V domains shown)
VH: EVQLVESGGGLVRPGGSLRLSCAASGFTFSSYAMSWVRQAPGKGLEWVSAISGSGGSTYYADSVKGRFTISRDNTKNSLYLQMTSLRADDTAFYYCVKDFGPGYGTGWFDYWGPGTLVTVSS
VL: AVNWYQQLPGKAPKLLIYAAGGCPRILMRCKQDSDCLAGCVCGPNGFCGSNSGVPDRFSGSKSGNTASLTISGLQSEDEADYYCAAWDDSLSGVVFGGGTQLTVLG
B2: KB_A09 (scFv on phage) (scFv, V domains shown)
VH: EVQLVESGGGLVRPGGSLRLSCAASGFTFSSYAMSWVRQAPGKGLEWVSAISGSGGSTYYADSVKGRFTISRDNTKNSLYLQMTSLRADDTAFYYCVKDFGPGYGTGWFDYWGPGTLVTVSS
VL: AVNWYQQLPGKAPKLLIYAAERCPRILMRCKQDSDCLAGCVCGPNGFCGTPSGVPDRFSGSIDTFSNSASLTISGLKTEDEADYYCQSYDSSHHWVFGGGTKLTVLG
B3: KB_C08 (scFv on phage) (scFv, V domains shown)
VH: EVQLVESGGGLVRPGGSLRLSCAASGFTFSSYAMSWVRQAPGKGLEWVSAISGSGGSTYYADSVKGRFTISRDNTKNSLYLQMTSLRADDTAFYYCVKDFGPGYGTGWFDYWGPGTLVTVSS
VL: AVNWYQQLPGKAPKLLIYAAAVCPRILMRCKQDSDCLAGCVCGPNGFCGTRSGIPERFSGSKSGTSAFLAISGLRSEDEADYYCAAWDDSLSGVVFGGGTKLTVLG
B4: KB_B02 (scFv on phage) (scFv, V domains shown)
VH: EVQLVESGGGLVRPGGSLRLSCAASGFTFSSYAMSWVRQAPGKGLEWVSAISGSGGSTYYADSVKGRFTISRDNTKNSLYLQMTSLRADDTAFYYCVKDFGPGYGTGWFDYWGPGTLVTVSS
VL: AVNWYQQLPGKAPKLLIYAAVGCPRILMRCKQDSDCLAGCVCGPNGFCGTGSGIPERFSGSKSGNTASLTISGLQAEDEGDYYCAAWDDSLSGPVFGGGTKLTVLG
B5: KB_A05 (scFv on phage) (scFv, V domains shown)
VH: EVQLVESGGGLVRPGGSLRLSCAASGFTFSSYAMSWVRQAPGKGLEWVSAISGSGGSTYYADSVKGRFTISRDNTKNSLYLQMTSLRADDTAFYYCVKDFGPGYGTGWFDYWGPGTLVTVSS
VL: AVNWYQQLPGKAPKLLIYAADKCPRILMRCKQDSDCLAGCVCGPNGFCGGGSGIPERFSGSKSGTSASLAISGLRSEDEADYYCATWDDNLNGVVFGGGTKLTVLG
B6: KB_B01 (scFv on phage) (scFv, V domains shown)
VH: EVQLVESGGGLVRPGGSLRLSCAASGFTFSSYAMSWVRQAPGKGLEWVSAISGSGGSTYYADSVKGRFTISRDNTKNSLYLQMTSLRADDTAFYYCVKDFGPGYGTGWFDYWGPGTLVTVSS
VL: AVNWYQQLPGKAPKLLIYAAAGCPRILMRCKQDSDCLAGCVCGPNGFCGTRSGVSDRFSGSKSGTSASLAISGLRSEDEADYYCAAWDDSLRAYVFGTGTKLTVLG
B7: KB_A02 (scFv on phage) (scFv, V domains shown)
VH: EVQLVESGGGLVRPGGSLRLSCAASGFTFSSYAMSWVRQAPGKGLEWVSAISGSGGSTYYADSVKGRFTISRDNTKNSLYLQMTSLRADDTAFYYCVKDFGPGYGTGWFDYWGPGTLVTVSS
VL: AVNWYQQLPGKAPKLLIYAAAKCPRILMRCKQDSDCLAGCVCGPNGFCGGASGVSDRFSGSIDSSSNSASLTISGLKPEDEGDYYCQSYDSSNRWVFGGGTKVTVLG
B8: KB_A03 (scFv on phage) (scFv, V domains shown)
VH: EVQLVESGGGLVRPGGSLRLSCAASGFTFSSYAMSWVRQAPGKGLEWVSAISGSGGSTYYADSVKGRFTISRDNTKNSLYLQMTSLRADDTAFYYCVKDFGPGYGTGWFDYWGPGTLVTVSS
VL: AVNWYQQLPGKAPKLLINAADRCPRILMRCKQDSDCLAGCVCGPNGFCGTNSGVPDRFSGSSSGNTASLTITGAQAEDEADYYCNSRDSSGNNWVFGGGTKVTVLG
B9: KB_A01 (scFv on phage) (scFv, V domains shown)
VH: EVQLVESGGGLVRPGGSLRLSCAASGFTFSSYAMSWVRQAPGKGLEWVSAISGSGGSTYYADSVKGRFTISRDNTKNSLYLQMTSLRADDTAFYYCVKDFGPGYGTGWFDYWGPGTLVTVSS
VL: YLNWYQQKPGKAPKLLIYAAEVCPRILMRCKQDSDCLAGCVCGPNGFCGGTSGVPSRFSGSRSGTEFTLTISSLQPEDFATYYCQKVDDYPLTFGGGTKVEIKR
B10: KB_A11 (scFv on phage) (scFv, V domains shown)
VH: EVQLVESGGGLVRPGGSLRLSCAASGFTFSSYAMSWVRQAPGKGLEWVSAISGSGGSTYYADSVKGRFTISRDNTKNSLYLQMTSLRADDTAFYYCVKDFGPGYGTGWFDYWGPGTLVTVSS
VL: YLNWYQQKPGKAPKLLIYAAEICPRILMRCKQDSDCLAGCVCGPNGFCGPSSGIPARFSGSGYGTDFTLTINNIESEDAAYYFCLQHDNFPYTFGQGTKVEIKR
B11: KB_A06 (scFv on phage) (scFv, V domains shown)
VH: EVQLVESGGGLVRPGGSLRLSCAASGFTFSSYAMSWVRQAPGKGLEWVSAISGSGGSTYYADSVKGRFTISRDNTKNSLYLQMTSLRADDTAFYYCVKDFGPGYGTGWFDYWGPGTLVTVSS
VL: AVNWYQQLPGKAPKLLIYAAVRCPRILMRCKQDSDCLAGCVCGPNGFCGTPSGIPERFSGSIDRSTNSASLTISGLKTEDEADYYCQSYDSSNLNWVFGGGTKLTVLG
B12: KB_C07 (scFv on phage) (scFv, V domains shown)
VH: EVQLVESGGGLVRPGGSLRLSCAASGFTFSSYAMSWVRQAPGKGLEWVSAISGSGGSTYYADSVKGRFTISRDNTKNSLYLQMTSLRADDTAFYYCVKDFGPGYGTGWFDYWGPGTLVTVSS
VL: AVNWYQQLPGKAPKLLIYAAVGCPRILMRCKQDSDCLAGCVCGPNGFCGSASGVSDRFSGSKSGTSASLAISGLRSEDEADYYCASWDDSLRGYVFGTGTKVTVLG
B13: KB_A07_ShK (antibody, V domains shown)
VH: EVQLVESGGGLVRPGGSLRLSCAASGFTFSSYAMSWVRQAPGKGLEWVSAISGSGGSTYYADSVKGRFTISRDNTKNSLYLQMTSLRADDTAFYYCVKDFGPGYGTGWFDYWGPGTLVTVSS
VL: NWYQQKPGKAPKLLIYAAGVRSCIDTIPKSRCTAFQCKHSMKYRLSFCRKTCGTCSRSGVPSRFSGSGSGTDFTLTISSLQPEDFATYYCQQGASPPYTFGQGTKVEIKR
B14: KB_A07_MoKa-1 (antibody, V domains shown)
VH: EVQLVESGGGLVRPGGSLRLSCAASGFTFSSYAMSWVRQAPGKGLEWVSAISGSGGSTYYADSVKGRFTISRDNTKNSLYLQMTSLRADDTAFYYCVKDFGPGYGTGWFDYWGPGTLVTVSS
VL: DIQMTQSPSSLSASVGDRVTITCRASQSISSYLNWYQQKPGKAPKLLIYAAGVINVKCSLPQQCIKPCKDAGMRFGKCMNKKCRCYSSRSGVPSRFSGSGSGTDFTLTISSLQPEDFATYYCQQGASPPYTFGQGTKVEIKRT
B15: KB_A07_KTX (antibody, V domains shown)
VH: EVQLVESGGGLVRPGGSLRLSCAASGFTFSSYAMSWVRQAPGKGLEWVSAISGSGGSTYYADSVKGRFTISRDNTKNSLYLQMTSLRADDTAFYYCVKDFGPGYGTGWFDYWGPGTLVTVSS
VL: DIQMTQSPSSLSASVGDRVTITCRASQSISSYLNWYQQKPGKAPKLLIYAAGVGVEINVKCSGSPQCLKPCKDAGMRFGKCMNRKCHCTPKSRSGVPSRFSGSGSGTDFTLTISSLQPEDFATYYCQQGASPPYTFGQGTKVEIKR

What follows are binders tested against trypsin (assay: phage TRF on trypsin).

Going from B1 to B2, the Tryspin binding signal (FU) rises from 38800 FU to 57700 FU.

Going from B3 to B4, the Tryspin binding signal (FU) rises from 76800 FU to 116000 FU.

Compared with B5, B6 is lower in Tryspin binding signal (FU): 121000 FU for the first, 57700 FU for the second.

First: B7
Second: B8
The Tryspin binding signal (FU) of the first is higher: 183000 FU for the first, 28700 FU for the second.

Going from B9 to B10, the Tryspin binding signal (FU) falls from 20200 FU to 16400 FU.

Compared with B11, B12 is higher in Tryspin binding signal (FU): 24400 FU for the first, 43300 FU for the second.

Each binder was assayed against human Kv1.3 (human) (UniProt P22001) (assay: cell-based or functional assay).
Sequence of human Kv1.3 (human) (P22001 whole entry): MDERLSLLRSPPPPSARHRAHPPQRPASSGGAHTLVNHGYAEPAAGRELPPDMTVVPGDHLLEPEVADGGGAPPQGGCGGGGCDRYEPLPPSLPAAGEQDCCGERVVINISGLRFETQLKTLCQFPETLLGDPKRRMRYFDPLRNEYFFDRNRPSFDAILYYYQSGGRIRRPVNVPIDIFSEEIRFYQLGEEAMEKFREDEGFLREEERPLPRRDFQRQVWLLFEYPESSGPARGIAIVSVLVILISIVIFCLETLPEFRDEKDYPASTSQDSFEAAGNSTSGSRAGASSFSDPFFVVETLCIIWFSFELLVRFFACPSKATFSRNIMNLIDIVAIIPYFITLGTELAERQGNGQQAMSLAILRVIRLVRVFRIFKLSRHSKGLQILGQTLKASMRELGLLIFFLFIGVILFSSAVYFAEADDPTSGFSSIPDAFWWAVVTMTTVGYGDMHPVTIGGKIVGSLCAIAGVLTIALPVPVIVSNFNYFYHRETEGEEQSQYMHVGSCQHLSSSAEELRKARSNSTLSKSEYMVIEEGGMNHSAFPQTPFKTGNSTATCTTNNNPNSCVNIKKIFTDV

First: B13
Second: B14
The IC50, huKv1.3 current, QPatch patch clamp of the first is lower: 40 nM for the first, > 10000 nM for the second.

In the case of B15, the IC50, huKv1.3 current, QPatch patch clamp is reported as 900 nM.
